PMC11303396 (Nature Communications, 2024)

Target: the molecule itself
Assay: cryo-EM structure

B1: mouse ClC-3b I607T mutant (natural protein, UniProt P51791 1-818, looked up)
chain: MESEQLFHRGYYRNSYNSITSASSDEELLDGAGAIMDFQTSEDDNLLDGDTAAGTHYTMTNGGSINSSTHLLDLLDEPIPGVGTYDDFHTIDWVREKCKDRERHRRINSKKKESAWEMTKSLYDAWSGWLVVTLTGLASGALAGLIDIAADWMTDLKEGICLSALWYNHEQCCWGSNETTFEERDKCPQWKTWAELIIGQAEGPGSYIMNYIMYIFWALSFAFLAVSLVKVFAPYACGSGIPEIKTILSGFIIRGYLGKWTLMIKTITLVLAVASGLSLGKEGPLVHVACCCGNIFSYLFPKYSTNEAKKREVLSAASAAGVSVAFGAPIGGVLFSLEEVSYYFPLKTLWRSFFAALVAAFVLRSINPFGNSRLVLFYVEYHTPWYLFELFPFILLGVFGGLWGAFFIRANIAWCRRRKSTKFGKYPVLEVIIVAAITAVIAFPNPYTRLNTSELIKELFTDCGPLESSSLCDYRNDMNASKIVDDIPDRPAGVGVYSAIWQLCLALIFKIIMTVFTFGIKVPSGLFIPSMAIGAIAGRIVGIAVEQLAYYHHDWFIFKEWCEVGADCITPGLYAMVGAAACLGGVTRMTVSLVVIVFELTGGLEYTVPLMAAVMTSKWVGDAFGREGIYEAHIRLNGYPFLDAKEEFTHTTLAADVMRPRRSDPPLAVLTQDNMTVDDIENMINETSYNGFPVIMSKESQRLVGFALRRDLTIAIESARKKQEGIVGSSRVCFAQHTPSLPAESPRPLKLRSILDMSPFTVTDHTPMEIVVDIFRKLGLRQCLVTHNGIVLGIITKKDILRHMAQTANQDPASIMFN
Question: Does B1 bind?
Answer: binds
